Measured values reported in PMC10436073, “Saccharomyces cerevisiae NRE1 and IRC24 Encode Paralogous Benzil Oxidoreductases” (microPublication Biology, 2023).

Substrate: O=C(C(=O)c1ccccc1)c1ccccc1
Assay: purified protein
Format: biochemical, Saccharomyces cerevisiae
Conditions: NADPH 0.075 mM (preferred cofactor; NADH also measured), 10 mM Tris-HCl pH 8.0, 30 C, apparent Km

Protein | Km [µM]
Irc24p (Saccharomyces cerevisiae S288C) (protein) MGKVILITGASRGIGLQLVKTVIEEDDECIVYGVARTEAGLQSLQREYGADKFVYRVLDITDRSRMEALVEEIRQKHGKLDGIVANAGMLEPVKSISQSNSEHDIKQWERLFDVNFFSIVSLVALCLPLLKSSPFVGNIVFVSSGASVKPYNGWSAYGCSKAALNHFAMDIASEEPSDKVRAVCIAPGVVDTQMQKDIRETLGPQGMTPKALERFTQLYKTSSLLDPKVPAAVLAQLVLKGIPDSLNGQYLRYNDERLGPVQG | 420
Nre1p (Saccharomyces cerevisiae S288C) (protein) MGKVILVTGVSRGIGKSIVDVLFSLDKDTVVYGVARSEAPLKKLKEKYGDRFFYVVGDITEDSVLKQLVNAAVKGHGKIDSLVANAGVLEPVQNVNEIDVNAWKKLYDINFFSIVSLVGIALPELKKTNGNVVFVSSDACNMYFSSWGAYGSSKAALNHFAMTLANEERQVKAIAVAPGIVDTDMQVNIRENVGPSSMSAEQLKMFRGLKENNQLLDSSVPATVYAKLALHGIPDGVNGQYLSYNDPALADFMP | 390
